# From patent US20030091565A1 (Human Genome Sciences, published 2003)
# No end group written: not given here.
# B1: DX876 (peptide)
# peptide: Ac-WYDPLTKLWLGGK(fitc)
# notes: 10-mer core (positions 3-12 of the 14-mer) with GGK linker
# Experiments:
# [1] = target: T1, B lymphocyte stimulator protein (BLyS), recombinant (human, UniProt Q9Y275 134-285, limits assumed, biotinylated in the phage screening and phage ELISA; unlabeled in fluorescence anisotropy); test: not stated there
# T1 construct: also called biotinylated BLyS; b-BLyS
# [2] = target: T1, B lymphocyte stimulator protein (BLyS), …; test: fluorescence anisotropy
# Procedure: Dissociation constants between the synthetic peptides and BLyS (free in solution) were measured by fluorescence anisotropy (FA). In these experiments, the concentration of the fluorescein-labeled peptide is held constant and the BLyS protein concentration was varied. The observed change in anisotropy is fit to the following equation via nonlinear regression to obtain the apparent KD.
# Binding reactions containing 50 nM fluorescein-labeled peptide and a varied concentration of BLyS in a volume between 10 and 20 μL per well were performed in 384 well microplates. Reactions were assayed using a Tecan Polarion fluorescence polarization plate reader. Cross-competition studies between peptides were performed using 50 nM fluorescein-labeled peptide and 1-2 μM BLyS in the presence and absence of 100 μM unlabeled peptide. […] Other buffers in which dissociation constants of BLyS Binding polypeptides were detremined include: [pH 6.0, 0.01% Tween], [pH 6.0, 0.1% gelatin], [pH5.0, 0.01% Tween], [pH9.0, 0.1% Tween], [pH6.0, 15% ethylene glycol, 0.01 % Tween], ], [pH5.0, 15% ethylene glycol, 0.01 % Tween], and [pH9.0, 15% ethylene glycol, 0.01 % Tween].
# [3] = target: T1, B lymphocyte stimulator protein (BLyS), …; test: not stated there (fluorescence anisotropy elsewhere)
# T1 sequence (Q9Y275 134-285 limits assumed): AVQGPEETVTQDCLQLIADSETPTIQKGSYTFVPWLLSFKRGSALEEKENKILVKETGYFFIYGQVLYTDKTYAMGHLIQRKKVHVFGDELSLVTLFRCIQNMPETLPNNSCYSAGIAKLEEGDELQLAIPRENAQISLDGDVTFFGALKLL
binder,measurement,setting,value
VPFCDLLTKHCFEA (on M13 phage; also called TN8-01-B07) [453-01-B07],Kd,[1],700 nM
B1,Kd,[2],171 nM
Ac-WTDSLTGLWFPDGGPGPEGGGK [DX221],Kd,[3],3000 nM
